# In US20040018205A1:
# Read-outs that look alike come from different tables or passages of the source. Non-standard residues stand in square brackets, D forms with d. No end group written: not given here. Abu = CC[C@H](N)C(=O)O
# Legend:
# [1] = target: HLA-A2.01 molecule at the surface of T2 cells; assay: T2 cells loaded overnight; residual surface complexes by indirect immunofluorescence and FACS at 0, 2, 4 and 5 h
# [2] = target: soluble HLA-A2.01 molecules; assay: competition with 125I-F10V for HLA-A2.01, ratio peptide/125I-F10V 10/1
# [3] = target: soluble HLA-A2.01 molecules; assay: competition with 125I-F10V for HLA-A2.01, ratio peptide/125I-F10V 25/1
# [4] = target: HLA-A2.01 molecule at the surface of T2 cells; assay: T2 cell HLA-A2.01 stabilization; concentration ratio against the reference peptide for 20% of maximal stabilized molecules
# [5] = target: HLA-A2.01 molecule at the surface of T2 cells
Binder,DC50 (half-life of the peptide-HLA-A2.1 complex) [1] [h],"percentage inhibition of the binding of 125I-F10V, ratio 10/1 [2] [%]","percentage inhibition of the binding of 125I-F10V, ratio 25/1 [3] [%]",RA [4],DC50 (half-life of the peptide-HLA-A2.1 complex) [5] [h],RA [5]
PIGRIAECI (modifications not checked) [P9I],0,,,,,
YIGRIAECI (modifications not checked) [Y9I],< 2,,,,,
RIAECILGM (modifications not checked) [wildtype R9M peptide],< 2,64,69,2.9,,
YIAECILGM (modifications not checked) [Y9M],< 2,,,,,
RIAEAILGM (modifications not checked) [R9M-5A],< 2,59,72,3.2,,
YIAEAILGM (modifications not checked) [Y9M-5A],,79,87,0.9,,
RIAESILGM (modifications not checked) [R9M-5S],,74,75,,2,2.2
YIAESILGM (modifications not checked) [Y9M-5S],,25,37,1.4,,
RIAE[Abu]ILGM [R9M-5α-but],2,27,49,2,,
YIAE[Abu]ILGM [Y9M-5α-but],,26,26,0.7,,
AMPIGRIAE (modifications not checked) [A9E],,47,57,,,
YMPIGRIAE (modifications not checked) [Y9E],0,,,,,
